Results: publication PMC2860604

T1: Jun bZIP ΔL5432 (human, UniProt P05412 251-286)
T1 chain: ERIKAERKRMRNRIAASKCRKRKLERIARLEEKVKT

T2: Jun bZIP ΔL54321 (human, UniProt P05412 251-279)
T2 chain: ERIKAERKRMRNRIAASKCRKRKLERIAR

T3: Jun bZIP ΔL54 (human, UniProt P05412 251-300)
T3 chain: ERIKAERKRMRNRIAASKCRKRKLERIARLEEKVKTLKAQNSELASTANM

T4: Jun bZIP ΔL543 (human, UniProt P05412 251-293)
T4 chain: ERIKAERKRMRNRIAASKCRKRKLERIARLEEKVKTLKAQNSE


What was measured:
[1] = molecular target: Wildtype (WT) construct of bZIP domain of human Jun (human); assay: SEC-MALS
[2] = molecular target: T1, Jun bZIP ΔL5432; assay: ITC
[3] = molecular target: T2, Jun bZIP ΔL54321; assay: ITC
[4] = molecular target: Jun bZIP ΔL5 (human, UniProt P05412 251-307); assay: ITC
[5] = molecular target: T3, Jun bZIP ΔL54; assay: ITC
[6] = molecular target: T4, Jun bZIP ΔL543; assay: ITC
[7] = molecular target: Jun bZIP domain WT (human, UniProt P05412 252-315); assay: ITC
Chain of Jun bZIP domain WT (P05412 252-315): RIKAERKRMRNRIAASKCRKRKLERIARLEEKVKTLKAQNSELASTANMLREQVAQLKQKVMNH

stoichiometry N [1]	Molecule	binding result [2]	binding result [3]	Kd [4] [µM]	Kd [5] [µM]	Kd [6] [µM]	Kd [7] [µM]
2	Wildtype (WT) construct of bZIP domain of human Jun (domain or fragment)	–	–	–	–	–	–
–	TRE duplex (dsDNA) DNA 1: CGCGTGACTCACCCC DNA 2: GGGGTGAGTCACGCG	no binding	no binding	1.26 ± 0.21	6.14 ± 0.27	14.8 ± 1.67	0.25 ± 0.01
